± gives the uncertainty stated by the source.

The data set in a line: amyloid nucleation score (Sup35N fusion, yeast selection) (log enrichment); library NNK3; higher = more nucleation; inactive = no reads after selection. The gist of the method: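 Psi-negative yeast expressed Sup35N fused to peptides of 20 random codons. They were induced 24 hours with 100 μM copper sulfate, grown 7 days at 30°C without adenine and uracil, and their plasmid inserts from input and output were Illumina-sequenced. The nucleation score is the DiMSum log enrichment of output over input reads, centred on the mode score of non-aggregating sequences. Sequences with under 100 input reads were excluded.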
As to CLGNENVELVSTNVVYRYIS, the amyloid nucleation score entry was “inactive”.

As to CSTIVWWEIAYKL, the amyloid nucleation score entry was “inactive”.

Consider QMYSLWCKKCMFYDGCEGVS, for which the amyloid nucleation score entry was “inactive”.

Take CIHTPDRCKVCNGITFDGRC: the amyloid nucleation score result was “inactive”.

As for GHLSIHREGFNLVSHLCANF, the amyloid nucleation score result was “inactive”.

Take ARWVWDIKETVTLV: the amyloid nucleation score result is “inactive”.

With LFFRLHYS, the amyloid nucleation score result is “inactive”.

Regarding HFFLLMLSYSYYDCVFRYKC, the amyloid nucleation score result was “inactive”.

Turning to GRSSRCWGGMCRGGNLCEEF, the amyloid nucleation score result was “inactive”.

The substance VLNFWGAVFPIIMLFYESVY had an amyloid nucleation score of 2.03 ± 0.096.

As to QRLCCPRNL, the amyloid nucleation score result was “inactive”.

With AIYAYTFAKRPSCEQATRVS, the amyloid nucleation score entry is “inactive”.

Substance FIMMRIMSFPISHVCV returned an amyloid nucleation score of 0.708 ± 0.27.

For VGTIVFVFSFASWPRVGYIR, the amyloid nucleation score entry is “inactive”.

With ILRLTCLIAKHTRAVNMDLQ, the amyloid nucleation score entry was “inactive”.

Regarding FGQYWKRCTTCLCGWPTGIG, the amyloid nucleation score entry was “inactive”.

GIRVHGNFYMNSGSSTGG came in with an amyloid nucleation score of 1.49 ± 0.073.

LSYSAGEIRCVGSCWANESL: the amyloid nucleation score result was “inactive”.

On to YLVTWWMLSHKLTHMCFSGR, for which the amyloid nucleation score was -0.024 ± 0.69.

In the case of CLWKG, the amyloid nucleation score result was “inactive”.

Turning to KAVQAVVLSLTGWFGVERLY, the amyloid nucleation score entry is “inactive”.

On to ITFIM, for which the amyloid nucleation score result is “inactive”.

As to SHLPCLFCYV, the amyloid nucleation score result was “inactive”.

In the case of VPLTRSKYYFRSWRWIDCGG, the amyloid nucleation score entry is “inactive”.

Turning to PFRNMLGMNPNSQTLRVMVR, the amyloid nucleation score result was “inactive”.

For the substance WGNLCQSGALCCQEGC, the amyloid nucleation score result is “inactive”.

With QMFSLTFIVMFLFFPSRGCR, the amyloid nucleation score result is “inactive”.

As for RRARFFVHAQVRWVCFWAMK, the amyloid nucleation score entry is “inactive”.

For the substance HSEADDSLTGYFALVATRVF, the amyloid nucleation score entry was “inactive”.

On to CLALSGIIIFELKAYLGSWC, for which the amyloid nucleation score was 1.27 ± 0.12.

In the case of QYCDSMTLINQPAAIRGLLW, the amyloid nucleation score entry is “inactive”.

For RIVFSKVMLVEIRTSLWFCT, the amyloid nucleation score entry is “inactive”.

Take RAICGMNFCNISHLT: the amyloid nucleation score stood at 3.05 ± 0.067.

On to LIDMFIFNARVSNGDFYCPN, for which the amyloid nucleation score is 0.718 ± 0.13.

With GYLRNMVWRMSQYIREVCPR, the amyloid nucleation score result is “inactive”.

NQYQSLSRRCSAGALGALVV: the amyloid nucleation score entry was “inactive”.

Substance SVNIMVMTVMNY registered an amyloid nucleation score of 1.81 ± 0.058.

In the case of MDLCMETGQYSLRNTVCAFL, the amyloid nucleation score entry was “inactive”.

Consider KYNANYQSSYNIVRLYRVFW, for which the amyloid nucleation score entry is “inactive”.

As to VYRNVHMFSRWQDFNPLGAR, the amyloid nucleation score result was “inactive”.

Consider GLCRNCF, for which the amyloid nucleation score entry was “inactive”.

Regarding FYSWCR, the amyloid nucleation score result is “inactive”.

In the case of SFSMIRE, the amyloid nucleation score result was “inactive”.

As to VDNCYDVITSLILSKYVLTL, the amyloid nucleation score entry was “inactive”.

As for PIVRWVSSLLYVVRWLPRLA, the amyloid nucleation score entry was “inactive”.

On to SGSKR, for which the amyloid nucleation score result is “inactive”.

The substance YCAGWFFMFSV returned an amyloid nucleation score of 0.586 ± 0.2.

In the case of DTDFIFVNIA, the amyloid nucleation score entry was “inactive”.

Take VLRRLGWICL: the amyloid nucleation score result was “inactive”.

Regarding HMNDASPGTAKFEIV, the amyloid nucleation score entry is “inactive”.

In the case of NDGTSILSTQSLSVRWMVRV, the amyloid nucleation score entry was “inactive”.

For the substance YYTFSVHSYGEFMRCLFIQH, the amyloid nucleation score entry was “inactive”.

For the substance GCWECPTYQMLCTRVCLTWT, the amyloid nucleation score result is “inactive”.

Consider LWIDLWFILYWPGSIDCGEC, for which the amyloid nucleation score was -0.288 ± 0.45.

Consider TSYNCCVVHSVRTAIFARG, for which the amyloid nucleation score result was “inactive”.

For IKMSLAELTIFRCLWDCPNS, the amyloid nucleation score was 2.42 ± 0.077.

With SYHYFGRYCGFR, the amyloid nucleation score entry was “inactive”.

Consider LETFI, for which the amyloid nucleation score result is “inactive”.

Turning to CFPIASHGDSCGMIAA, the amyloid nucleation score entry is “inactive”.

For the substance VESLSVSAAL, the amyloid nucleation score result is “inactive”.

In the case of TCFESLGLDVPIPYNRWVRS, the amyloid nucleation score result was “inactive”.

HSVASDYRTAFLLSHT gave an amyloid nucleation score of 1.39 ± 0.089.

For the substance IYGNSFPEGIHRTGWESYHR, the amyloid nucleation score result was “inactive”.

Consider TKDGHYA, for which the amyloid nucleation score result is “inactive”.

For SLPNA, the amyloid nucleation score result was “inactive”.

SYRVCMCSTLVVVVSSRGLS came in with an amyloid nucleation score of 0.823 ± 0.17.

Regarding SLMIG, the amyloid nucleation score entry is “inactive”.

Regarding PTTMVPQPRPYSLRRTLAY, the amyloid nucleation score entry is “inactive”.

For the substance FFWECYRQINCSINW, the amyloid nucleation score result was “inactive”.

For PVALLTD, the amyloid nucleation score result was “inactive”.

For the substance PSSFASP, the amyloid nucleation score entry is “inactive”.

Substance SMGKCRFRCVNIIFYWRWIH had an amyloid nucleation score of 1.25 ± 0.14.

On to FDMTL, for which the amyloid nucleation score entry was “inactive”.

With NLGLRGPLLAMKCMIACYVQ, the amyloid nucleation score result is “inactive”.

As for ILVIIKNHFVFFAGR, the amyloid nucleation score result is “inactive”.

For VRSLDNQLSVDFFFVGPVGF, the amyloid nucleation score was 1.3 ± 0.14.

With RDISIFRFRYTRRSWWLSFG, the amyloid nucleation score entry was “inactive”.

Regarding MVWWNPNSWNVMLSLIWCLV, the amyloid nucleation score turned out to be 0.752 ± 0.14.

For the substance MKRGWFELMIHWDYI, the amyloid nucleation score entry was “inactive”.

VCIWSIETNVCSGCVKIKGF: the amyloid nucleation score entry was “inactive”.

Consider GNVMSRRDTLWIVIYVRFRH, for which the amyloid nucleation score result is “inactive”.

Turning to VSTSFDFKWNLSLGIWFMVI, the amyloid nucleation score entry was “inactive”.

The substance WVCIW had an amyloid nucleation score of 0.178 ± 0.72.

As for NFGTWDQSVLSLRMKLTCVP, the amyloid nucleation score entry was “inactive”.

With LRTSVFRVLVNSILVKNLIS, the amyloid nucleation score result was “inactive”.

As for YVPIRSFVGEVLGSGDR, the amyloid nucleation score is 0.157 ± 0.59.

With EFGPVTPGSEPQALLCTRRL, the amyloid nucleation score result was “inactive”.

With SPFPLEPFS, the amyloid nucleation score result was “inactive”.

HNNYHYIVRSFVGI came in with an amyloid nucleation score of 1.01 ± 0.28.

CNHVSLTMILVRVLNMFF showed an amyloid nucleation score of 0.968 ± 0.23.

In the case of DLQRLSNRKSKGLWSGCIGK, the amyloid nucleation score result is “inactive”.

As for EYHDALEYVVGDKAIFWSGD, the amyloid nucleation score entry is “inactive”.

Turning to CLACFI, the amyloid nucleation score entry was “inactive”.

With NWNYLISMRGFTEYGESFWW, the amyloid nucleation score was -0.18 ± 0.61.

On to ASDGCSLRVAPVTQSPLWVS, for which the amyloid nucleation score result is “inactive”.

LFEHLRW: the amyloid nucleation score was found to be 0.685 ± 0.2.

Consider INLPDASS, for which the amyloid nucleation score result was “inactive”.

As for QFIINDSFYINQNNRRYSKV, the amyloid nucleation score result is “inactive”.

Take TERYATNSLCSGIKMALRQV: the amyloid nucleation score result is “inactive”.

With IDMFGSWFSCILGEKNQLGS, the amyloid nucleation score entry is “inactive”.

LTHRAVGLSNVNTPPSFCMR displayed an amyloid nucleation score of 0.842 ± 0.2.

For the substance LLNCGLMLLRIDVCRATYYV, the amyloid nucleation score stood at 1.36 ± 0.14.

As for CYDTFGLFYCFLVWVWDLIV, the amyloid nucleation score entry is “inactive”.

As for VNLEYYV, the amyloid nucleation score result is “inactive”.

RFSYSDTI: the amyloid nucleation score entry was “inactive”.

With VIRVTWGYNWNNYVKHVYRS, the amyloid nucleation score was found to be 0.35 ± 0.55.

For TLCLQKHPSFGDYIFG, the amyloid nucleation score entry is “inactive”.

In turn, DGPTRLNLFNSLFVSLKRMY gave an amyloid nucleation score of 1.58 ± 0.12.

For the substance LEYYAS, the amyloid nucleation score entry is “inactive”.

IMKKESVAHHVNIGIHASLT registered an amyloid nucleation score of -0.101 ± 1.1.

In turn, VHKYMGEVLHQYFPLMLYLF registered an amyloid nucleation score of 0.807 ± 0.1.

With SADITSTLGRYAFYF, the amyloid nucleation score entry was “inactive”.

MWVGDKPSGSRRLVLGVRVT showed an amyloid nucleation score of -0.258 ± 0.91.

With SFGTLQKVK, the amyloid nucleation score entry was “inactive”.

DLGFWPYFISIMACCWDQKG had an amyloid nucleation score of 1.15 ± 0.12.

For the substance IYIVTYICPVSSRLKGLLCQ, the amyloid nucleation score result was “inactive”.

In the case of SYFVAAVYYQDERNNGFCGQ, the amyloid nucleation score entry was “inactive”.

Take NASMNKYYVRFTFGNPHVLL: the amyloid nucleation score is 2.52 ± 0.061.

RQVFNAIAFFVLHR showed an amyloid nucleation score of -0.299 ± 0.69.

With VYKIMVTFPSISMPSRSSGL, the amyloid nucleation score entry is “inactive”.

Consider SPRTNNPTMHRSGW, for which the amyloid nucleation score entry was “inactive”.

With FCFYICGLGFY, the amyloid nucleation score result was “inactive”.

With ATGLWGICGWTPDTNHLQVM, the amyloid nucleation score entry was “inactive”.

Consider RRYSRIRYRRKLVNWLFYIM, for which the amyloid nucleation score result was “inactive”.

For the substance LYKGSHWDQAFLSVWYLGVL, the amyloid nucleation score result was “inactive”.

Regarding MVGRGEQVM, the amyloid nucleation score entry was “inactive”.

Take FSNLYLVMTNCPSRDPPVYT: the amyloid nucleation score entry was “inactive”.

For the substance NRMLNYIFDTTS, the amyloid nucleation score result was “inactive”.

Substance MNLYVSSLIGISARMWDWFS displayed an amyloid nucleation score of 0.289 ± 0.25.

With TATLAC, the amyloid nucleation score entry was “inactive”.

As for LCILMMKVKVCVGNGLFLSA, the amyloid nucleation score entry was “inactive”.

As to YITMNVHSRDASVRWLDF, the amyloid nucleation score result is “inactive”.

In the case of DAPVVTVRAGNAGNHSMIPW, the amyloid nucleation score result was “inactive”.

Source of the values: the supplement of paper PMC12042874.
